Results: patent US7927849B2, “Laccase enzyme and use thereof” (AB Enzymes OY, priority 2004, dated 2011)

Legend:
[1] = Specific activity on syringaldazine; assay type: biochemical; conditions: 25 mM MES buffer, pH 5.5
Description: Specific activities of the purified Thielavia laccase were determined towards different laccase substrates.

[2] = Denim bleaching at different pH-values (Launder Ometer); conditions: 50° C.; for Increase of L* / L* after laccase treatment / b* after laccase treatment: 200 nkat/g, 30 min
Description: Lee Cooper jeans (Hamilton, 111-1060-55522-65, MASI Company Oy, Finland, former name M.A.S.I. jeans Oy) that were made of ring spun yarn in warp and open-end yarn in weft and were previously desized and treated with neutral ECOSTONE® cellulase were used as a test material. Laccase treatments were performed in LP-2 Launder Ometer as follows. About 10 g of denim swatches (15×14 cm) were loaded into 1.2 liter containers containing 200 ml Mc Ilvaine's citrate phosphate buffer pH 5, 6 or 7 and the containers were temperated. Enzyme with or without the mediator (methyl syringate, DeniLite II Assist, Novozymes) was added. Enzyme was dosed 200 nkat/g and the mediator 10 mg/g on the weight of fabric. […] The Launder Ometer was run at 50° C. for 30 min and after that the temperature in Launder was raised to 80° C. for 10 min. The swatches were rinsed carefully with warm water, dried half-dry in a tumbler and after that air dried.
The bleaching effect was evaluated by measuring the colour as reflectance values with the Minolta Spectrophotometer CM 1000 (Minolta Co.) using L*a*b* color space coordinates (illuminant D65/2°). The colour from both sides of the swatches was measured before and after the laccase treatment. Each measurement was the average of several, at least ten, measurements.

[3] = Denim bleaching at different temperatures (Launder Ometer); conditions: 200 nkat/g, 30 min, pH 6
Description: The test system and denim were as in Example 7, except that the conditions during the laccase and mediator treatment in Launder were 30 min, pH 6 and temperature 30-80° C. Also, the enzyme was inactivated by an alkaline treatment instead of raising the temperature in Launder as follows. After removing swatches from the containers they were soaked in warm water containing NaOH (pH 11.5) for 10 min and rinsed carefully with warm water. The swatches were dried half-dry in a tumbler and after that air dried. The bleaching effect was evaluated by measuring the colour as reflectance values as in Example 7.

[4] = Stain removal with laccases, tea; conditions: 60 min, pH 6
Description: The TaLcc1 (RF5598) and Denilite II Base laccase preparations were tested for their ability to remove stains. The following artificially soiled test cloths were used: grass soiling (Art. 164, EMPA Testmaterialen, Germany), tea soiling (Art. 167, EMPA Testmaterialen, Germany). The fabric was cut in 5.8×5.8 cm swatches. Laccase treatments were performed in LP-2 Launder Ometer as follows. About 5 g of soiled fabrics were loaded into 1.2 liter containers containing 150 ml Mc Ilvaine's citrate phosphate buffer pH 6 and the containers were temperated. Enzymes with or without the mediator (methyl syringate, DeniLite II Assist, Novozymes) were dosed as laccase activity units (Example 7). Enzyme dosage was 200 nkat/g and mediator dosage 10 mg/g of the weight of fabric, except at 40° C. also dosages of 20 nkat/g and 2 mg/g were used. The Launder Ometer was run at 40, 50 or 60° C. and pH 6 for 60 min. After that the swatches were carefully rinsed under running water and in shake flasks containing warm water and dried in the air.
The stain removal effect was evaluated by measuring the colour as reflectance values using L*a*b* color space coordinates (Example 7). The colour of the swatches was measured before and after the laccase treatment.

[5] = Decolorization of dyes; set-up: key: −: no visually detectable change; +: visually detectable fading of the colour; ++: considerable fading of the colour; +++: complete/almost complete decolorization; conditions: dye 12 mg/100 ml, 50° C., pH 6
Description: The TaLcc1 laccase preparation from strain RF5597 was tested for its ability to decolourize different dyes in the presence or absence of the methyl syringate mediator (Example 7). The experiments were carried out in 250 ml shake flasks containing 100 ml of dye dissolved in citrate phosphate buffer pH 6. Dye concentration 12 mg/100 ml was used. Enzyme was dosed 200 nkat (or 20 nkat) per 100 ml and the mediator 10 (or 1) mg per 100 ml. The shake flasks were incubated at 50° C. for 30, 90 and 150 minutes. Samples of 3.5 ml were taken in test tubes for visual evaluation.

[6] = 20 nkat/g, mediator 2 mg/g, 40° C.
[7] = 200 nkat/g, mediator 0 mg/g, 40° C.
[8] = 200 nkat/g, mediator 0 mg/g, 60° C.
[9] = 200 nkat/g, mediator 10 mg/g, 40° C.
[10] = 200 nkat/g, mediator 10 mg/g, 50° C.
[11] = 200 nkat/g, mediator 10 mg/g, 60° C.
[12] = enzyme 20 nkat/100 ml, mediator 0 mg/100 ml
[13] = enzyme 20 nkat/100 ml, mediator 1 mg/100 ml
[14] = enzyme 200 nkat/100 ml, mediator 0 mg/100 ml
[15] = enzyme 200 nkat/100 ml, mediator 10 mg/100 ml

B1: TaLcc1: Recombinant Thielavia arenaria ALKO4197 laccase 1 (SEQ ID NO: 12) produced in Trichoderma reesei strains RF5597/RF5598 (protein)
chain: MKSWAAAVALMVGILSPHAAAAPPANPVQRDMLQVLEARQSGPTCNTPSNRACWTNGFDINTDYEVSTPNTGRTVAYQLTLTEKENWIGPDGVLKNVVMLVNDKIIGPTIRANWGDNIEVTVINNLKTNGTSMHWHGLRQLGNVFNDGANGVTECPIPPKGGRKTYKFRATQYGTSWYHSHFSAQYGNGVVGTIQIDGPASLPYDIDLGVFPLMDYYYRSADELVHFTQSNGAPPSDNVLFNGTARHPETGAGQWYNVTLTPGKRHRLRIINTSTDNHFQVSLVGHNMTVIATDMVPVNAFTVSSLFLAVGQRYDVTIDANSPVGNYWFNVTFGDGLCGSSNNKFPAAIFRYQGAPATLPTDQGLPVPNHMCLDNLNLTPVVTRSAPVNNFVKRPSNTLGVTLDIGGTPLFVWKVNGSAINVDWGKPILDYVMSGNTSYPVSDNIVQVDAVDQWTYWLIENDPTNPIVSLPHPMHLHGHDFLVLGRSPDELPSAGVRHIFDPAKDLPRLKGNNPVRRDVTMLPAGGWLLLAFKTDNPGAWLFHCHIAWHVSGGLSVDFLERPNDLRTQLNSNAKRADRDDFNRVCREWNAYWPTNPFPKIDSGLRHRFVEESEWMVR
modifications: Thielavia arenaria ALKO4197; (1)..(617) Deduced amino acid sequence of Thielavia arenaria ALKO4197 laccase 1 (Ta Lcc1)
- Specific activity on syringaldazine [1]: 340 nkat/mg
- Increase of L* ([2]; mediator 0 mg/g, pH 5): 0.14
- L* after laccase treatment ([2]; mediator 0 mg/g, pH 5): 28.22
- b* after laccase treatment ([2]; mediator 0 mg/g, pH 5): −18.35
- Increase of L* ([2]; mediator 0 mg/g, pH 6): 0.82
- L* after laccase treatment ([2]; mediator 0 mg/g, pH 6): 29.58
- b* after laccase treatment ([2]; mediator 0 mg/g, pH 6): −18.38
- Increase of L* ([2]; mediator 0 mg/g, pH 7): 0.37
- L* after laccase treatment ([2]; mediator 0 mg/g, pH 7): 27.80
- b* after laccase treatment ([2]; mediator 0 mg/g, pH 7): −18.50
- Increase of L* ([2]; mediator 10 mg/g, pH 5): 13.52
- L* after laccase treatment ([2]; mediator 10 mg/g, pH 5): 42.04
- b* after laccase treatment ([2]; mediator 10 mg/g, pH 5): −14.78
- Increase of L* ([2]; mediator 10 mg/g, pH 6): 21.19
- L* after laccase treatment ([2]; mediator 10 mg/g, pH 6): 48.97
- b* after laccase treatment ([2]; mediator 10 mg/g, pH 6): −12.36
- Increase of L* ([2]; mediator 10 mg/g, pH 7): 16.92
- L* after laccase treatment ([2]; mediator 10 mg/g, pH 7): 44.71
- b* after laccase treatment ([2]; mediator 10 mg/g, pH 7): −14.43
- optimum pH in denim bleaching ([2]; pH 5 to 7 tested): 6
- Increase of L* ([3]; mediator 0 mg/g, 80° C.): 0.64
- L* after laccase treatment ([3]; mediator 0 mg/g, 80° C.): 30.27
- b* after laccase treatment ([3]; mediator 0 mg/g, 80° C.): −18.62
- Increase of L* ([3]; mediator 10 mg/g, 30° C.): 4.10
- L* after laccase treatment ([3]; mediator 10 mg/g, 30° C.): 33.68
- b* after laccase treatment ([3]; mediator 10 mg/g, 30° C.): −19.17
- Increase of L* ([3]; mediator 10 mg/g, 40° C.): 8.68
- L* after laccase treatment ([3]; mediator 10 mg/g, 40° C.): 37.49
- b* after laccase treatment ([3]; mediator 10 mg/g, 40° C.): −18.64
- Increase of L* ([3]; mediator 10 mg/g, 50° C.): 14.59
- L* after laccase treatment ([3]; mediator 10 mg/g, 50° C.): 42.99
- b* after laccase treatment ([3]; mediator 10 mg/g, 50° C.): −17.06
- Increase of L* ([3]; mediator 10 mg/g, 60° C.): 18.42
- L* after laccase treatment ([3]; mediator 10 mg/g, 60° C.): 47.56
- b* after laccase treatment ([3]; mediator 10 mg/g, 60° C.): −14.55
- Increase of L* ([3]; mediator 10 mg/g, 70° C.): 17.85
- L* after laccase treatment ([3]; mediator 10 mg/g, 70° C.): 46.94
- b* after laccase treatment ([3]; mediator 10 mg/g, 70° C.): −13.82
- Increase of L* ([3]; mediator 10 mg/g, 80° C.): 9.85
- L* after laccase treatment ([3]; mediator 10 mg/g, 80° C.): 39.24
- b* after laccase treatment ([3]; mediator 10 mg/g, 80° C.): −15.74
- Tea L* [4, 6]: 77.17
- Tea a* [4, 6]: 4.65
- Tea b* [4, 6]: 24.40
- Tea L* [4, 7]: 75.99
- Tea a* [4, 7]: 5.59
- Tea b* [4, 7]: 23.54
- Tea L* [4, 8]: 76.98
- Tea a* [4, 8]: 4.98
- Tea b* [4, 8]: 21.20
- Tea L* [4, 9]: 78.77
- Tea a* [4, 9]: 3.93
- Tea b* [4, 9]: 24.97
- Tea L* [4, 10]: 79.52
- Tea a* [4, 10]: 3.45
- Tea b* [4, 10]: 23.74
- Tea L* [4, 11]: 81.69
- Tea a* [4, 11]: 2.91
- Tea b* [4, 11]: 22.29
- Decolorization of Remazol Brilliant Blue, Time 30 min [5, 12]: −
- Decolorization of Remazol Brilliant Blue, Time 90 min [5, 12]: −
- Decolorization of Remazol Brilliant Blue, Time 30 min [5, 13]: −
- Decolorization of Remazol Brilliant Blue, Time 90 min [5, 13]: −
- Decolorization of Cibacron Brilliant Red 3B-P, Time 30 min [5, 14]: −
- Decolorization of Cibacron Brilliant Red 3B-P, Time 90 min [5, 14]: −
- Decolorization of Pontamine Bast Orange GRN, Time 30 min [5, 14]: −
- Decolorization of Pontamine Bast Orange GRN, Time 90 min [5, 14]: −
- Decolorization of Remazol Brilliant Blue, Time 30 min [5, 14]: −
- Decolorization of Remazol Brilliant Blue, Time 90 min [5, 14]: −
- Decolorization of Cibacron Brilliant Red 3B-P, Time 30 min [5, 15]: +++
- Decolorization of Cibacron Brilliant Red 3B-P, Time 90 min [5, 15]: +++
- Decolorization of Pontamine Bast Orange GRN, Time 30 min [5, 15]: +
- Decolorization of Pontamine Bast Orange GRN, Time 90 min [5, 15]: +
- Decolorization of Remazol Brilliant Blue, Time 30 min [5, 15]: ++
- Decolorization of Remazol Brilliant Blue, Time 90 min [5, 15]: ++
